{"source": "patent US7485710B2", "about": "“Nucleic acids coding for adhesion factor of group B streptococcus, adhesion factors of group B streptococcus and further uses thereof” (priority 2002, dated 2009)", "molecules": {"B1": {"name": "FbsA-N: fusion protein with the 19 N-terminal repeats of FbsA-19, truncated at its C-terminus (protein)", "chain": "MDSVGNQSQGNVLERRQRDAENRSQGNVLERRQRDVENKSQGNVLERRQRDAENKSQGNVLERRQRDAENRSQGNVLERRQRDAENRSQGNVLERRQRDAENRSQGNVLERRQRDAENRSQGNVLERRQRDAENRSQGNVLERRQRDVENKSQGNVLERRQRDAENKSQGNVLERRQRDAENRSQGNVLERRQRDAENRSQGNVLERRQRDAENRSQGNVLERRQRDAENRSQGNVLERRQRDAENRSQGNVLERRQRDAENRSQGNVLERRQRDAENRSQGNVLERRQRDAENRSQGNVLERRQRDAENKSQVGQLIG", "modifications": "left off: small tags and cut ends", "notes": "fusion protein with the 19 N-terminal repeats of FbsA-19, truncated at its C-terminus"}, "B2": {"name": "FbsA-9: derivative of FbsA-19 fusion protein with only 9 repeats in its repeat domain (protein)", "chain": "MDSVGNQSQGNVLERRQRDAENRSQGNVLERRQRDVENKSQGNVLERRQRDAENKSQGNVLERRQRDAENRSQGNVLERRQRDAENRSQGNVLERRQRDAENRSQGNVLERRQRDAENRSQGNVLERRQRDAENRSQGNVLERRQRDAENKSQVGQLIGKNPLLSKSIISRENNHSSQGDSNKQSFSKKVSQVTNVANRPMLTNNSRTISVINKLPKTGDDQNV", "modifications": "left off: small tags and cut ends", "notes": "derivative of FbsA-19 fusion protein with only 9 repeats in its repeat domain"}}, "key": {"human fibrinogen [1]": {"biological_target": "T1, human fibrinogen (Homo sapiens, UniProt P02671+P02675+P02679)", "T1 construct": "purchased Sigma-Aldrich", "T1 sequence (P02675 31-491)": "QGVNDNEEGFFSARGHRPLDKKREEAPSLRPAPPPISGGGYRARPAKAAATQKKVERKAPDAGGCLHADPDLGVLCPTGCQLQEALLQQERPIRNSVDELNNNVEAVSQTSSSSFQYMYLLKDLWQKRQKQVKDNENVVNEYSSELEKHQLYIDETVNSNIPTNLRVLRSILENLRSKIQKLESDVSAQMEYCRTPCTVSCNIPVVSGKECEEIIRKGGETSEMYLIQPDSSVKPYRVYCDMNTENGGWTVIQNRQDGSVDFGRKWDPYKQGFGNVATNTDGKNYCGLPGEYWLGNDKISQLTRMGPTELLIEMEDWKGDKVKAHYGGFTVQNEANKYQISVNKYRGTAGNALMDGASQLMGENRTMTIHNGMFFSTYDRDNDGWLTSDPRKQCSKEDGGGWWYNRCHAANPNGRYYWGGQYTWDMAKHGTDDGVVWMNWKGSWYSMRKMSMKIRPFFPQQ", "T1 sequence (P02679 27-433)": "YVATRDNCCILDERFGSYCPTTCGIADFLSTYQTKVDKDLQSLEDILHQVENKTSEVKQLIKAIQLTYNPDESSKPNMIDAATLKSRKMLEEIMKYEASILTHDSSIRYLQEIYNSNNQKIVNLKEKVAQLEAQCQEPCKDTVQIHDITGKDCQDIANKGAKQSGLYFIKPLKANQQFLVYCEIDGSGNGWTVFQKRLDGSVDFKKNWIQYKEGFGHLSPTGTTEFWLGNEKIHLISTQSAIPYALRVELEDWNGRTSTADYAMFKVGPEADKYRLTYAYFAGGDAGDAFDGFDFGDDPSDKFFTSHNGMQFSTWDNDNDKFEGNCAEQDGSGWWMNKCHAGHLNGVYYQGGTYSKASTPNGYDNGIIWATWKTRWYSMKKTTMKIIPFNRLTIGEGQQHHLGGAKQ", "T1 sequence (P02671 20-629)": "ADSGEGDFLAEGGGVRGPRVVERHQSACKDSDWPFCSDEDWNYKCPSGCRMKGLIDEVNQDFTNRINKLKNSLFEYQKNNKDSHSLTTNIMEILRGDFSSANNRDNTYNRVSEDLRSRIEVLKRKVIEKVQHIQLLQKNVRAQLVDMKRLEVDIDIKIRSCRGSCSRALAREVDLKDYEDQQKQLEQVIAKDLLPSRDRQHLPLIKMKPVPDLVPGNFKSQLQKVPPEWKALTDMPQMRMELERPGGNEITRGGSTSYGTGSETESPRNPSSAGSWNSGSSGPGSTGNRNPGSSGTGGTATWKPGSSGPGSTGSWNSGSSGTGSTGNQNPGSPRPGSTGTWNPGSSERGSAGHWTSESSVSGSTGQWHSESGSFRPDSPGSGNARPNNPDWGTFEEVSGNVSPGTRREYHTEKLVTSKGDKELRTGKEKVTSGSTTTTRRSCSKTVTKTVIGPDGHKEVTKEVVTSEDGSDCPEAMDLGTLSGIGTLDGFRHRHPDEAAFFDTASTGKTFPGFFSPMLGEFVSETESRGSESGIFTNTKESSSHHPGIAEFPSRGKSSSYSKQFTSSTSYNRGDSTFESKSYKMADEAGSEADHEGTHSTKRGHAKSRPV", "assay": "Spot membrane analysis of fibrinogen binding by synthetic peptides", "details": "peptides derived from FbsA repeat GNVLERRQRDAENRSQ", "procedure": "Fibrinogen binding was tested with peptides carrying the FbsA repeat motif ‘GNVLERRQRDAENRSQ’ (SEQ ID 113) and with peptides containing the scrambled sequence ‘GLSQNRDVRENQRARE’. (SEQ ID 205) Synthetic peptides, which differed from the repeat motif in that single amino acids had been replaced by alanine, were probed for fibrinogen binding. Beside the spot membrane, the sequence of each synthetic peptide is listed. Bold and underlined letters indicate amino acid substitutions within the repeat motif.\nSynthetic peptides were tested for fibrinogen binding, in which each of the amino acids of the fibrinogen-binding repeat was replaced by each of the 20 amino acids. The vertical letters, printed in bold, represent the FbsA-derived fibrinogen binding sequence ‘GNVLERRQRDAENRSQ’ (SEQ ID NO: 113). The horizontal letters represent those amino acids that were introduced in the synthetic peptides instead of the original amino acid in the respective position.\nIn Western blot experiments proteins were separated by SDS-PAGE and electroblotted onto nitrocellulose. […] For spot membrane experiments peptides of 16 amino acids were synthesized and equal amounts of the peptides were directly spotted onto cellulose paper as described previously (Frank and Overwin, 1996). Blocking was performed in membrane blocking solution (MBS) that consisted of 20 ml casein based blocking buffer (Genosys Biotechnologies, Cambridge, England), 80 ml Tris-buffered saline (TBS), 0.05% tween 20, and 5 g sucrose. Probing for fibrinogen-binding was performed as described below.\nMembranes that had been blocked overnight were incubated for 1 h with 2 μg/ml of human fibrinogen. For Western and colony blot experiments, fibrinogen and antibodies were diluted in PBS while for spot membrane analysis they were diluted in MBS. Following three washes with PBS, the membrane was incubated with anti-fibrinogen antibodies (1:1000 in PBS or MBS) for 1 h. This incubation was followed by three washes with PBS, containing 0.05% tween 20 (PBST) and two washes with PBS. Subsequently, the membrane was incubated for 1 h with peroxidase-labelled anti-rabbit IgG (1:1000 in PBS or MBS). After three washes with PBST and two washes with PBS, bound fibrinogen was detected by chemiluminescence using the ECL-kit (Amersham/Pharmacia). In control experiments, no cross-reactivity of the used antibodies with the immobilized proteins and peptides was detected."}, "GBS 6313": {"tested_on": "GBS 6313", "assay": "Competitive inhibition of 125I-labelled fibrinogen binding to GBS", "parameters": "species or system Streptococcus agalactiae", "details": "for inhibition of fibrinogen binding to GBS: 160 μM synthetic peptide, radiolabelled fibrinogen", "procedure": "FbsA-9 differs from FbsA-19 in that it contains only 9 repeats in its repeat domain. The binding assay was performed with ^125I-labelled fibrinogen in the presence of different concentrations of each fusion protein. Each experiment was performed at least in triplicate.\nEach experiment was performed at least in triplicate.\nPurified human fibrinogen was radiolabelled with ^125I, using the chloramin T method (Hunter and Greenwood, 1962). Binding of labelled fibrinogen to GBS was performed essentially as described by Chhatwal et al. (Chhatwal, Muller, and Blobel, 1983). Briefly, overnight cultures of GBS were pelleted by centrifugation, washed twice with phosphate-buffered saline supplemented with 0.02% Tween 20 (PBST) and adjusted photometrically to a transmission of 10% at 600 nm. A total of 0.2 ml of the bacterial suspension was added to 20 μl of ^125I-labelled fibrinogen containing 23 ng of fibrinogen. After incubation for 1 h at room temperature, the streptococci were sedimented by centrifugation and washed with 1 ml of PBST. The radioactivity of the pellet was finally measured in a gamma counter (Packard Instruments). The amount of bacterial-bound fibrinogen was calculated as the percentage of total radiolabelled fibrinogen added to the bacteria. In inhibition experiments, the binding of 23 ng of radiolabelled fibrinogen to 0.2 ml of GBS (T=10%) was determined in the presence of various amounts of FbsA fusion proteins, Bsp fusion protein or synthetic peptides. Each experiment was repeated at least three times in triplicate."}, "A549 cells": {"tested_on": "A549 cells", "assay": "Epithelial cell adherence and internalization assay of GBS 6313 in presence of proteins", "type": "cell-based, human", "details": "fibrinogen 0.1 μg/ml to 1.0 μg/ml; fibronectin 10 μg/ml; data not shown", "procedure": "The adherence of GBS 6313 to A549 cells (A) and its internalization into these cells (B) was arbitrarily set to 100% and the results obtained in the presence of the different fusion proteins was related to these values. Each experiment was performed at least three times in triplicate.\nAdherence of GBS to epithelial cells and internalization into epithelial cells was assayed essentially as described previously (Caparon et al., 1991; Rubens et al. 1992). Briefly, A549 cells were transferred to 24-well tissue culture plates at approximately 4×10^5 cells per well and cultivated overnight in RPMI (Gibco BRL) tissue culture medium, supplemented with 10% of fetal calf serum. After replacement of the medium with 1 ml of fresh medium, the cells were infected with 5×10^6 streptococci per well and incubated at 37° C. for 2 h. The non-adherent bacteria were removed by washing three times with PBS. In adherence assays, the epithelial cells were subsequently detached from the well by the addition of trypsin/EDTA and lysed by adding 300 μl of distilled water. Adherent bacteria were quantitated by plating serial dilutions of the lysate onto THY agar plates. For internalization assays the epithelial cells were incubated after 2 h of infection for another 2 h in tissue culture medium supplemented with penicilling G (10 U) and streptomycin (0.01 mg) to kill extracellular bacteria. After three washes with PBS, the epithelial cells were detached by the addition of trypsin/EDTA and lysed in 300 μl of distilled water. The amount of intracellular bacteria was quantified by plating serial dilutions of the lysate onto THY agar plates. Each experiment was repeated at least three times in triplicate. […]\nAdherence of S. agalactiae to A549 and HEL299 cells and internalization into these cells was assayed essentially as described in Example 1 for A549 cells. In some experiments, A549 cells were preincubated with different amounts of FbsA protein or FbsA-derived peptides in RPMI medium for 30 min with three subsequent washes with PBS."}, "human fibrinogen [2]": {"biological_target": "T1, human fibrinogen", "assay": "Western blot of fusion proteins for fibrinogen binding", "details": "His-tagged fusion proteins separated by SDS-PAGE, blotted, probed with human fibrinogen", "text": "The fibrinogen binding activity of the three proteins encoded by different constructs are indicated below the schematic FbsA drawing.\nThe fusion proteins were size-separated by SDS-PAGE, transferred onto a nitrocellulose membrane and tested for fibrinogen binding by Western blotting. Bound fibrinogen was detected with rabbit anti-fibrinogen antibodies, followed by peroxidase-labelled goat anti-rabbit antibodies, and visualized by chemiluminescence. PabC and Gbs0851: full-length fusion proteins; PabC-N: N-terminal 388 amino acids of PabC; PabC-C: C-terminal 222 amino acids of PabC. (C) Identification of the FbsA and PabC-binding sites within human fibrinogen by Western blot analysis. […] Bound fusion proteins were detected with mouse anti-HisTag antibodies, followed by peroxidase-conjugated goat anti-mouse IgG fab fragments and visualized by chemiluminescence. […]\nMembranes that had been blocked overnight were incubated for 1 h with 2 μg/ml of human fibrinogen. […] After three washes with PBST and two washes with PBS, bound fibrinogen was detected by chemiluminescence using the ECL-kit (Amersham/Pharmacia). In control experiments, no cross-reactivity of the used antibodies with the immobilized proteins and peptides was detected."}}}
{"molecule": "GLSQNRDVRENQRARE (listed as Streptococcus agalactiae) [randomised peptide, reference compound]", "values": [{"measurement": "fibrinogen binding of synthetic 16-mer peptides on spot membrane", "setting": "human fibrinogen [1]", "result": "no binding of fibrinogen"}]}
{"molecule": "GNVLEARQRDAENRSQ [pep_R6A, synthetic FbsA repeat unit peptide carrying an R6A substitution]", "values": [{"measurement": "inhibition of fibrinogen binding to GBS", "setting": "GBS 6313", "result": 20, "unit": "%"}, {"measurement": "fibrinogen binding of synthetic 16-mer peptides on spot membrane", "setting": "human fibrinogen [1]", "result": "significantly reduced binding to fibrinogen"}, {"measurement": "fibrinogen binding of synthetic 16-mer peptides on spot membrane", "setting": "human fibrinogen [1]; listed as R6A", "result": "retained little binding activity"}]}
{"molecule": "GNVLERRQRDAENRSQ (listed as Streptococcus agalactiae) [pep_FbsA]", "values": [{"measurement": "inhibition of fibrinogen binding to GBS", "setting": "GBS 6313", "result": 80, "unit": "%"}, {"measurement": "fibrinogen binding of synthetic 16-mer peptides on spot membrane", "setting": "human fibrinogen [1]", "result": "strong interaction"}]}
{"molecule": "R^14K: FbsA repeat peptide with R14K substitution (GNVLERRQRDAENKSQ; listed as Streptococcus agalactiae)", "values": [{"measurement": "fibrinogen binding of synthetic 16-mer peptides on spot membrane", "setting": "human fibrinogen [1]", "result": "retained fibrinogen binding"}]}
{"molecule": "fibronectin [reference compound]", "values": [{"measurement": "bacterial adherence to A549 cells after pre-incubation of S. agalactiae 6313 with protein", "setting": "A549 cells", "result": "did not exert an inhibitory effect"}, {"measurement": "bacterial invasion of A549 cells after pre-incubation of S. agalactiae 6313 with protein", "setting": "A549 cells", "result": "did not exert an inhibitory effect"}]}
{"molecule": "B1", "values": [{"measurement": "fibrinogen binding in Western blot", "setting": "human fibrinogen [2]", "result": "fibrinogen binding was observed"}]}
{"molecule": "B2", "values": [{"measurement": "inhibition of binding of 125I-labelled fibrinogen to GBS 6313", "setting": "GBS 6313; increasing concentrations of purified fusion protein", "result": "significantly higher concentration of FbsA-9 had to be used to obtain a comparable inhibition"}]}
